Assay results published in patent US20060078537A1.

Target: human CCR5 (human) (UniProt P51681)
Assay: cell-based or functional assay

Sequence of human CCR5 (human) (P51681 whole entry): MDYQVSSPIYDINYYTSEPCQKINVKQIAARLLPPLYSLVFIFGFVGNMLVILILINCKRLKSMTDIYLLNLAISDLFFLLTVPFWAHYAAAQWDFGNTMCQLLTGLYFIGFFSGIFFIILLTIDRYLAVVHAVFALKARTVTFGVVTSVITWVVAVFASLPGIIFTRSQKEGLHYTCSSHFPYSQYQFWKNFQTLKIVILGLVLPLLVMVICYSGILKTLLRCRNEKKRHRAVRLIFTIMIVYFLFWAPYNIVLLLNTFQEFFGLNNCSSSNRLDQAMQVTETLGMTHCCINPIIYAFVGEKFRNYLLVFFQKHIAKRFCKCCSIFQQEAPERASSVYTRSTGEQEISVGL

Substance: AOP-RANTES (from UniProt P13501 24-91) (ligand)
- CCR5 receptor downmodulation on CHO cells expressing CCR5 (FACS) at 1 nM AOP-RANTES: 50%
- CCR5 receptor downmodulation on CHO cells expressing CCR5 (FACS) at 100 nM AOP-RANTES: 90%
